Reference: US20070167369A1, “Novel use of isolated polypeptide comprising four FAS-1 domains, EM1 domain and RGD motif” (KYUNGPOOK NATIONAL UNIVERSITY INDUSTRY-ACADEMIC COOPERATION …, priority 2004, published 2007)

Molecular target: αvβ3 integrin (human) (UniProt P06756)
Assay: cell-based or functional assay

Sequence of αvβ3 integrin (human) (P06756 31-1048, chain 1 of 2): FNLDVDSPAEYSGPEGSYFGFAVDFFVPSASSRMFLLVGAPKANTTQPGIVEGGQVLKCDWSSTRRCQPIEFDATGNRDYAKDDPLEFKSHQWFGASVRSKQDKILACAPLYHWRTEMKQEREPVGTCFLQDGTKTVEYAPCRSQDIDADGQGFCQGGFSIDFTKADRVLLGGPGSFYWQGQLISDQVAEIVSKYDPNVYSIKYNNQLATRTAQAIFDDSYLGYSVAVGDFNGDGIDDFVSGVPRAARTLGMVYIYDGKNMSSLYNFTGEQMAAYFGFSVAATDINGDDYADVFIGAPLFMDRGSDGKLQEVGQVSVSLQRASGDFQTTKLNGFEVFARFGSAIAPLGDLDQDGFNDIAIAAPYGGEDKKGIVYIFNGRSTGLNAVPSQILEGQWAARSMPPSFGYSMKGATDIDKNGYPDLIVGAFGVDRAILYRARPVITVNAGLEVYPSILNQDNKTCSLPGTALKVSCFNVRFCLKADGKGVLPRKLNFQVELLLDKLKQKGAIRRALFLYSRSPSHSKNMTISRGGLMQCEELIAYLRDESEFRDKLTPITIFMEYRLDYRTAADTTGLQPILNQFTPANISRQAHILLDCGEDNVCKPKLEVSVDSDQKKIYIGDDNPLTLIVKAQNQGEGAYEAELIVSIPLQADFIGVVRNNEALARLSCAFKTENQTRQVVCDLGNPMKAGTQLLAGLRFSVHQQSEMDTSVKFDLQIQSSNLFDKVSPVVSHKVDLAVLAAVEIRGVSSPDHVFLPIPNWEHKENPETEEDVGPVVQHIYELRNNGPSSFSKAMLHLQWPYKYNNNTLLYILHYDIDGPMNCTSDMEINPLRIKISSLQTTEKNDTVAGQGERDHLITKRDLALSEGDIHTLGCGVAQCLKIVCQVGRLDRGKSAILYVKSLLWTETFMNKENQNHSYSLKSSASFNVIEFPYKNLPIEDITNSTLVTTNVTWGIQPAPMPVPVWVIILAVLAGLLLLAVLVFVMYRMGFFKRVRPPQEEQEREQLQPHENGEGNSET
Sequence of αvβ3 integrin (human) (P05106 27-788, chain 2 of 2, further chain): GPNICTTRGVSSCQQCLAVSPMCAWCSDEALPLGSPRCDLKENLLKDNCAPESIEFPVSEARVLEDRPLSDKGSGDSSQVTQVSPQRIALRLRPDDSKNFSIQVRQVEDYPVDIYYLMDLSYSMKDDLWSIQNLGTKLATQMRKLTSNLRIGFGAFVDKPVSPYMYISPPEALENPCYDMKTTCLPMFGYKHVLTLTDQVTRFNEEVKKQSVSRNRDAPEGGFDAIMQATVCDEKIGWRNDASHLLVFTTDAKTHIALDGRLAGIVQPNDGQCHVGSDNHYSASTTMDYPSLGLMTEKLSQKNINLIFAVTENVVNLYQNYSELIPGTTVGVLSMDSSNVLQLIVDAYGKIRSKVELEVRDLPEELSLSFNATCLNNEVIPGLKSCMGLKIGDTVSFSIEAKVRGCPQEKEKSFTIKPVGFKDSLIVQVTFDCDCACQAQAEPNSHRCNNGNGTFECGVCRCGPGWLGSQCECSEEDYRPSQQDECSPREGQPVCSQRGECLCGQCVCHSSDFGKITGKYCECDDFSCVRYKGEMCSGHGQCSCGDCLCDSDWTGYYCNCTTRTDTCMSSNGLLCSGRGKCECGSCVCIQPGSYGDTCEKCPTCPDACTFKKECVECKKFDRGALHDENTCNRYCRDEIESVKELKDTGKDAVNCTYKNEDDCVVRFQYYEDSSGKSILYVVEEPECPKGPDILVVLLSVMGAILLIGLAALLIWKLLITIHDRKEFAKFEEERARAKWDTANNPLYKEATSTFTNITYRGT

- 70%-inhibition of tube formation (HUVECs on Matrigel): 5 µM
- half-inhibition of migration toward vitronectin (HUVECs, transwell): 5 µM
Substance: Regenin (regenin protein that expresses four of the fourth fas-1 domains of βig-h3)
